# Data taken from US20240084017A1 (ASCENDO BIOTECHNOLOGY, published 2024).
# B1: anti-Mac-1 antibody clone m2396 (antibody, human IgG4, V domains shown)
# VH: QVQLQESGPGLVKPSETLSLTCTVSGFSLTSNSISWVRQPPGKGLEWMGAIWSGGGTDYNPSLKSRLTISRDTSKSQVFLKMSSLTAADTAIYFCTRGGYPYYFDYWGQGVLVTVSS
# VL: DIVMTQSPDSLAVSLGERVTINCKSSQSLLYSENQENYLAWYQQKPGQSPKLLIYWASTRQSGVPDRFSGSGSGTDFTLTISSVQAEDLAIYYCQQYYDTPLTFGGGTKLEIK
# B2: anti-Mac-1 antibody clone DF3M-5 (antibody, human IgG4, V domains shown)
# VH: EVQLVESGGGLVQPGGSLRLSCAASGFTFGTYDMHWVRQAPGKGLEWVSMISPSGGDTYYADSVKGRFTISRDNSKNTLYLQMNSLRAEDTAVYYCARDSSGDWYAMAYWGQGTLVTVSS
# VL: DIQMTQSPSSLSASVGDRVTITCRASQSIRRYLAWYQQKPGKAPKLLIYGASNLQSGVPSRFSGSGSGTDFTLTISSLQPEDFATYYCQHSSDTPLTFGQGTKVEIK
# Experiments:
# [1] = biological target: T1, mouse Mac-1 (mouse, UniProt P05555 17-1153; P11835 24-771); test: flow cytometry, Raw 264.7 cells
# T1 construct: whole, on cells; also called Raw264.7
# [2] = biological target: T2, human Mac-1 (integrin αMβ2, CD11b/CD18) (human, UniProt P11215 17-1152; P05107 23-769); test: flow cytometry, HEK293/Mac-1 cells; MFI in PBS over MFI in PBS/MnCl2
# Experimental: (§1) The HEK293/Mac-1 cells (clone1-4) were counted and washed twice with staining buffer (PBS containing 1% FBS, and 0.1% sodium azide). Cells were adjusted at a concentration of 1×10⁵ cells/ml in staining buffer and treated with/without 0.25 mM MnCl₂ (Sigma). Cells were treated with anti-Mac-1 antibodies and fluorescent conjugated anti-human IgG4 antibodies and incubated for 15 mins. After washing with the staining buffer, the cells were analyzed by flow cytometry. In some examples, these cells were treated with the antibodies (ICRF44, KIM127, m24, or isotype control) in the presence or absence 10 μg/ml anti-Mac-1 antibodies. The cells were then incubated at 37° C. for 30 min. After washing with the staining buffer, the cells were analyzed by flow cytometry.
# (§2) TABLE II The anti-Mac-1 antibodies selectively bind to different statuses of human Mac-1. HEK293/Mac-1 cells (clone1-4) were incubated in PBS (Mock), or PBS/MnCl₂ (Mn²⁺). Binding of isotype control IgG, the CD11b specific mAb (ICRF44), the CD11b activation-sensing mAb (CBRM1/5), or the screened anti-Mac-1 antibody was detected using flow cytometry.
# [3] = biological target: T2, human Mac-1 (integrin αMβ2, CD11b/CD18); test: flow cytometry, HEK293/Mac-1 cells, PBS/MnCl2 (Mn2+), 10 µg/ml of this antibody; binding of reporter mAb KIM127 read
# Experimental: as §1
# (§3) TABLE IV The anti-Mac-1 antibody can serve as an antagonist to reduce the conformational change of Mac-1. HEK293/Mac-1 cells (clone1-4) were incubated with 10 μg/ml anti-Mac-1 antibodies under the PBS/MnCl₂ (Mn²⁺) condition. Binding of KIM127 or m24 was detected using flow cytometry.
# [4] = biological target: T2, human Mac-1 (integrin αMβ2, CD11b/CD18); test: flow cytometry, HEK293/Mac-1 cells, PBS (Mock), 10 µg/ml of this antibody; binding of reporter mAb KIM127 read
# Experimental: as §1
# (§4) TABLE III The anti-Mac-1 antibodies can serve as agonist to enhance the conformational change of Mac-1. HEK293/Mac-1 cells (clone1-4) were incubated with 10 μg/ml anti-Mac-1 antibodies under the PBS (Mock) condition. Binding of KIM127 or m24 was detected using flow cytometry.
# [5] = biological target: T2, human Mac-1 (integrin αMβ2, CD11b/CD18); test: flow cytometry, HEK293/Mac-1 cells (clone 1-4), PBS (Mock)
# Experimental: as §1, §2
# [6] = biological target: T2, human Mac-1 (integrin αMβ2, CD11b/CD18); test: flow cytometry, HEK293/Mac-1 cells, PBS/MnCl2 (Mn2+), 10 µg/ml of this antibody; binding of reporter mAb m24 read
# Experimental: as §1, §3
# [7] = biological target: T2, human Mac-1 (integrin αMβ2, CD11b/CD18); test: flow cytometry, HEK293/Mac-1 cells (clone 1-4), PBS/MnCl2 (Mn2+)
# Experimental: as §1, §2
# [8] = biological target: T2, human Mac-1 (integrin αMβ2, CD11b/CD18); test: flow cytometry, HEK293/Mac-1 cells, PBS (Mock), 10 µg/ml of this antibody; binding of reporter mAb m24 read
# Experimental: as §1, §4
# T1 sequence (P05555 17-1153, chain 1 of 2): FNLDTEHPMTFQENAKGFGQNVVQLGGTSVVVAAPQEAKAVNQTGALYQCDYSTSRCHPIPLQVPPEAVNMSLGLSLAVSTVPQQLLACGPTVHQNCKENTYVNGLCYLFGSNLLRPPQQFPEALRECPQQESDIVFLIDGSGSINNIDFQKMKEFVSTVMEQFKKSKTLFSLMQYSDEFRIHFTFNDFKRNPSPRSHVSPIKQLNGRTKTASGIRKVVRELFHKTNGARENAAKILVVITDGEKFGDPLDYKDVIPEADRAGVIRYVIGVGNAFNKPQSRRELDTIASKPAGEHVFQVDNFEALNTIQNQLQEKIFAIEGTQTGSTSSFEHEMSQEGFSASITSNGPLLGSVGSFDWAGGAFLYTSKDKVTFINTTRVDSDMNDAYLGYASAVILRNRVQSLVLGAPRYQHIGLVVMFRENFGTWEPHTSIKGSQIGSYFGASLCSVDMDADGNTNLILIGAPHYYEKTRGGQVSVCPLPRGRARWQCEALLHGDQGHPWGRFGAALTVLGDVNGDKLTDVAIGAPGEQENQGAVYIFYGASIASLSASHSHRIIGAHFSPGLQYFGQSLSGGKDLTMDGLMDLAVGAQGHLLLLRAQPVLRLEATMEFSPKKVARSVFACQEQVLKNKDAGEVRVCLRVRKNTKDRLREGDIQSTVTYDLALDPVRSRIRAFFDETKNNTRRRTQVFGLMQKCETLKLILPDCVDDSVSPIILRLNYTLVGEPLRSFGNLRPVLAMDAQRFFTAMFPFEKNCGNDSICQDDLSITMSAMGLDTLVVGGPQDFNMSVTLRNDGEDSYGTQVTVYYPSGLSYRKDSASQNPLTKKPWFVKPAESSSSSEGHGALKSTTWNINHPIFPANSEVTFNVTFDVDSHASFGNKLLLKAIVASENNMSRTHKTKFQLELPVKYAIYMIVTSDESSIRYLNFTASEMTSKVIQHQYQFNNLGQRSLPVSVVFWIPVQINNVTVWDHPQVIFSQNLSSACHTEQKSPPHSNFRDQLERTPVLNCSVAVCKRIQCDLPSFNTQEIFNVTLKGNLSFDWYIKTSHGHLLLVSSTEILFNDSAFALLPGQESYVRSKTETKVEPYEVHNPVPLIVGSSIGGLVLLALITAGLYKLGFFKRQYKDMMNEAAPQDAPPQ
# T1 sequence (P11835 24-771, chain 2 of 2): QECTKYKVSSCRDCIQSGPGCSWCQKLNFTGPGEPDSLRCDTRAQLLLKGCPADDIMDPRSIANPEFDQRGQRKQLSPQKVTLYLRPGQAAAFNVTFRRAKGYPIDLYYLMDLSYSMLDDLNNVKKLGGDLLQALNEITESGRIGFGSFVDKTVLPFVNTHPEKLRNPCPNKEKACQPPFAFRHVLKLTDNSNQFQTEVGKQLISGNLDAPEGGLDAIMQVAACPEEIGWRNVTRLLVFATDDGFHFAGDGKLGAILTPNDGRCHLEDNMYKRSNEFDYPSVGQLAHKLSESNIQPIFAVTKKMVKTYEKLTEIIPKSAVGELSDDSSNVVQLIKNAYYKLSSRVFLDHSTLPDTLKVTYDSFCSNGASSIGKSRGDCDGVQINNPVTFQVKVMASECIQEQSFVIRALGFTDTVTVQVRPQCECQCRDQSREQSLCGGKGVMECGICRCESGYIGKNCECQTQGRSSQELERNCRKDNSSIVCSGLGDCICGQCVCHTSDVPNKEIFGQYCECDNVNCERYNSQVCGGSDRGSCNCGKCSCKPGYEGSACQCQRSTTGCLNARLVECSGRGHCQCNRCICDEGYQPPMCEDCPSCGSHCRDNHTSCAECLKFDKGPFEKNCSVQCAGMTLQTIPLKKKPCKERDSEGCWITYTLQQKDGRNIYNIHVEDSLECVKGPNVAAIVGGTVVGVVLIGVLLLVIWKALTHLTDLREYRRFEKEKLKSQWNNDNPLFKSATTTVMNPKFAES
Binder,binding result [1],Mock/Mn^2+ Ratio [2],KIM127 (Expression relative to IgG4) [3],KIM127 (Expression relative to IgG4) [4],Mock MFI [5] [MFI],m24 (Expression relative to IgG4) [6],Mn^2+ MFI [7] [MFI],m24 (Expression relative to IgG4) [8]
B1,binds,1.01,0.81 relative to IgG4,1.09 relative to IgG4,108000,0.83 relative to IgG4,107000,0.88 relative to IgG4
B2,binds,0.66,1.68 relative to IgG4,2.49 relative to IgG4,34600,4.4 relative to IgG4,52500,28.4 relative to IgG4
